The text below walks through data of patent publication US20130184160.

Broadly, the Kd is the constant that tells how readily two partners part at equilibrium.

Holding throughout (assay): filter
For series [1], the target named is Alpha-1 acid glycoprotein (UniProt P02763). Particulars: T positions from B-TTP (quinoline-8-boronic acid linked at 5-position of dU via triazole), outside primer; specificity control.
The target of a further series is T1, Fetuin (UniProt P12763).
T1 sequence: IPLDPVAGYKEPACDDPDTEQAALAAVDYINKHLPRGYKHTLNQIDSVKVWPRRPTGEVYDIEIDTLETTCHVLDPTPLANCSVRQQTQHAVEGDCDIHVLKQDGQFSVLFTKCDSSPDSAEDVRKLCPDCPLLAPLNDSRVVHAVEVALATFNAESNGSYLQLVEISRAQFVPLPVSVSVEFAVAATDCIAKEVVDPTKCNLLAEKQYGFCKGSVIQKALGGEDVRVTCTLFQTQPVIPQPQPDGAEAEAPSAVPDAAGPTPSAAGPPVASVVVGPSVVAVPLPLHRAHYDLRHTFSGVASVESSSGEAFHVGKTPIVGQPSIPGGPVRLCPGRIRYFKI
Particulars: T positions from B-TTP (quinoline-8-boronic acid linked at 5-position of dU via triazole), outside primer; specificity control.

In series [2] the test system is Fibrinogen (glycosylated, untreated), P02671-2+P02675+P02679. Particulars: T positions from B-TTP; average Kd of pool after round 13.
Sequence of Fibrinogen (glycosylated, untreated), P02671-2+P02675+P02679 (P02671 other isoform, or with tags, fused parts or gaps, chain 1 of 3): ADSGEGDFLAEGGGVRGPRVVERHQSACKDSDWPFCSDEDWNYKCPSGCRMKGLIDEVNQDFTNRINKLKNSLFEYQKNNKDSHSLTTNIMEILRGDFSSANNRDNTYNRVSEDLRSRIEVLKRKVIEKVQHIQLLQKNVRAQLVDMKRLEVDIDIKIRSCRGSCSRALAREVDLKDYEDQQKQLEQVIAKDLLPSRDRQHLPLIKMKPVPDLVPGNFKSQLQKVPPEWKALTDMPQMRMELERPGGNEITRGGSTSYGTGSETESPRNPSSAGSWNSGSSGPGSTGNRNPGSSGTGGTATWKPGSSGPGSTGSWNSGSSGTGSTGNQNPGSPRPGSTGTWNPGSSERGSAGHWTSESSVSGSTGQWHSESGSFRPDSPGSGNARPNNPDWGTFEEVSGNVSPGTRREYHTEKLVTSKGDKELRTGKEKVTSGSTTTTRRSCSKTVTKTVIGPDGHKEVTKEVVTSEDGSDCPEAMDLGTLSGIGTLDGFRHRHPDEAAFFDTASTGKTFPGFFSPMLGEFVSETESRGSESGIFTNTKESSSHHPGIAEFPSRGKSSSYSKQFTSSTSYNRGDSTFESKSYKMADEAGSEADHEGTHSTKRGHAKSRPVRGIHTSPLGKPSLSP
Sequence of Fibrinogen (glycosylated, untreated), P02671-2+P02675+P02679 (P02675 31-491, chain 2 of 3): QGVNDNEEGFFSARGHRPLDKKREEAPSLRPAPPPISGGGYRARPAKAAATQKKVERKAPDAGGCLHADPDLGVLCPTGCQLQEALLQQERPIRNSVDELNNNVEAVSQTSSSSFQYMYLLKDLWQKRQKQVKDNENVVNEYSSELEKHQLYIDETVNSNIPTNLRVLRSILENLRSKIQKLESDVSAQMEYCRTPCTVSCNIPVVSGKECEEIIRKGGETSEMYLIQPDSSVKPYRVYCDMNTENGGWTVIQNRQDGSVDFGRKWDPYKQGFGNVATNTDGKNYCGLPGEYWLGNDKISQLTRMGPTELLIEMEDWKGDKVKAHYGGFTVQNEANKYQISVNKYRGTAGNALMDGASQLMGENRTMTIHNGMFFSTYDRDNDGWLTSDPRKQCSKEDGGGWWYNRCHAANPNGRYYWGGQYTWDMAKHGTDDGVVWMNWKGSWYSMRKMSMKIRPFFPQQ
Sequence of Fibrinogen (glycosylated, untreated), P02671-2+P02675+P02679 (P02679 27-453, chain 3 of 3): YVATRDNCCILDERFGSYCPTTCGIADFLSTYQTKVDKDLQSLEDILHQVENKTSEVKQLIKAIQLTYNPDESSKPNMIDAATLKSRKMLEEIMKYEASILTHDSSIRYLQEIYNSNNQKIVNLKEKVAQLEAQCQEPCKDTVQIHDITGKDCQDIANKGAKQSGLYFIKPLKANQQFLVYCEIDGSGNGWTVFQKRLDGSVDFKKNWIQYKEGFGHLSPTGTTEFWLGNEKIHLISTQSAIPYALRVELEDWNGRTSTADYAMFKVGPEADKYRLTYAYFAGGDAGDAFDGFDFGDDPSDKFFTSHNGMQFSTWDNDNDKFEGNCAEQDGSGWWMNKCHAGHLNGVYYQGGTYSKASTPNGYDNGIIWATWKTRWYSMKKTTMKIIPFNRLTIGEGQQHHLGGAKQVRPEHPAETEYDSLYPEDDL

Sequence of Alpha-1 acid glycoprotein (P02763 19-201): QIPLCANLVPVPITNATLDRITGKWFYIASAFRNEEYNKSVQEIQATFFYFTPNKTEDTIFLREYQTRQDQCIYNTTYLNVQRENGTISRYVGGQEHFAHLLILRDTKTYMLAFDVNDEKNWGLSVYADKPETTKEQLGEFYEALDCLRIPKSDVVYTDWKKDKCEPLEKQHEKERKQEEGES

“CCTTCGTTGTCTGCCTTCGTAGCGGATCGAATTACGCGTTAACGGCAACCGATAACGGGACCGATTGCACACCCTTCAGAATTCGCACCA [85A B-TTP (114H)]”: the dissociation constant Kd in series [1] worked out at 700 nM; with Fetuin, 2200 nM. Consider “CCTTCGTTGTCTGCCTTCGTNNNNNNNNNNNNNNNNNNNNNNNNNNNNNNNNNNNNNNNNNNNNNNNNNNACCCTTCAGAATTCGCACCA [Round 13 fibrinogen pool]”, for which the Kd in series [2] came to 5000 nM.
